This passage reports relative response to b-AP (% of GBP-SA control channel) results from patent publication US20060286142A1.

The assay addresses biotinylated alkaline phosphatase. The experiment in a line: SPR (Spreeta) refractive index response to 2 ug/ml b-AP on gold channels saturated with GBP-SA then GBP, after exposure to foulants (fibrinogen, human serum albumin, plasma, platelets).

“His6 tagged fusion protein streptavidin-GBP (from UniProt P22629 13-133)” registered a relative response to b-AP (% of GBP-SA control channel) of 80 to 100%.
